Measurements published in the Human Domainome abundance scans (Beltran et al. 2025).
± gives the uncertainty stated by the source.

B1: Pre-mRNA-processing factor 40 homolog B, residues 274 to 332; numbered along this chain, Q6NWY9 (parent)
chain: SNREKAKQAFKELLRDKAVPSNASWEQAMKMVVTDPRYSALPKLSEKKQAFNAYKAQRE
B2: Lysine-specific demethylase 5C, residues 319 to 373; numbered along this chain, P41229 (parent)
chain: AQFIESYVCRMCSRGDEDDKLLLCDGCDDNYHIFCLLPPLPEIPKGVWRCPKCVM

Variants of: B1
Experiment: abundance fitness (aPCA) (normalised: wild type 0, dead -1); higher = more abundant; growth selection in yeast, the domain comes from the species named
Details: Homo sapiens

P20Y and K48A are within error of each other in abundance fitness: -0.641 ± 0.14 for the first, -0.49 ± 0.076 for the second.

A23T and A23G are within error of each other in abundance fitness: -0.467 ± 0.1 for the first, -0.464 ± 0.054 for the second.

A23Y and A23I are within error of each other in abundance fitness: -0.254 ± 0.12 for the first, -0.122 ± 0.13 for the second.

A40T and A40C are within error of each other in abundance fitness: -0.312 ± 0.27 for the first, -0.129 ± 0.2 for the second.

First: A40Y
Second: V33W
The abundance fitness of the first is lower: -0.368 ± 0.27 for the first, 0.012 ± 0.088 for the second.

V33M and Q8I are within error of each other in abundance fitness: 0.171 ± 0.12 for the first, -0.069 ± 0.18 for the second.

Q8F and Q8C are within error of each other in abundance fitness: -0.412 ± 0.21 for the first, -0.386 ± 0.14 for the second.

Compared with L14I, L14N is higher in abundance fitness: -1.05 ± 0.27 for the first, -0.376 ± 0.11 for the second.

L14H and L14S are within error of each other in abundance fitness: -0.573 ± 0.2 for the first, -0.384 ± 0.079 for the second.

First: L14G
Second: Y38W
The abundance fitness of the first is lower: -0.403 ± 0.054 for the first, -0.085 ± 0.07 for the second.

Going from Y38R to Y38T, the abundance fitness rises from -0.476 ± 0.054 to -0.136 ± 0.077.

R58W and R58G are within error of each other in abundance fitness: 0.061 ± 0.087 for the first, 0.093 ± 0.071 for the second.

E59V and E59H are within error of each other in abundance fitness: 0.042 ± 0.1 for the first, -0.204 ± 0.22 for the second.

E59W and E4G are within error of each other in abundance fitness: -0.54 ± 0.13 for the first, -0.374 ± 0.054 for the second.

P42C and P42F are within error of each other in abundance fitness: -0.518 ± 0.1 for the first, -0.749 ± 0.21 for the second.

K43H and K43W are within error of each other in abundance fitness: -0.335 ± 0.15 for the first, -0.362 ± 0.068 for the second.

E26Q and E26V are within error of each other in abundance fitness: -0.412 ± 0.16 for the first, -0.364 ± 0.083 for the second.

First: Q57Y
Second: D16M
The abundance fitness of the first is higher: -0.715 ± 0.11 for the first, -1.03 ± 0.17 for the second.

Going from D16R to D16N, the abundance fitness falls from -0.7 ± 0.064 to -1.23 ± 0.19.

Compared with D16P, K5M is higher in abundance fitness: -0.875 ± 0.12 for the first, -0.024 ± 0.096 for the second.

First: K5P
Second: N22E
The abundance fitness of the first is lower: -0.409 ± 0.11 for the first, 0.03 ± 0.088 for the second.

S39A and S39D are within error of each other in abundance fitness: -0.02 ± 0.068 for the first, -0.068 ± 0.11 for the second.

Going from A50S to A50Q, the abundance fitness rises from -0.382 ± 0.074 to -0.212 ± 0.084.

K11S and K11R are within error of each other in abundance fitness: -0.001 ± 0.1 for the first, -0.03 ± 0.067 for the second.

Going from K11D to K11E, the abundance fitness rises from -0.386 ± 0.17 to 0.004 ± 0.15.

Compared with F10C, F10D is higher in abundance fitness: -0.611 ± 0.12 for the first, -0.22 ± 0.13 for the second.

Compared with R37T, R37A is higher in abundance fitness: -0.658 ± 0.12 for the first, -0.223 ± 0.069 for the second.

Compared with A28M, A28S is higher in abundance fitness: -0.576 ± 0.062 for the first, -0.413 ± 0.05 for the second.

Going from A28N to R15N, the abundance fitness rises from -0.445 ± 0.077 to 0.015 ± 0.15.

R15E and R15V are within error of each other in abundance fitness: 0.046 ± 0.14 for the first, -0.001 ± 0.087 for the second.

A56Y and A56H are within error of each other in abundance fitness: -0.351 ± 0.13 for the first, -0.102 ± 0.13 for the second.

K30A and S1Y are within error of each other in abundance fitness: -0.061 ± 0.078 for the first, 0.089 ± 0.23 for the second.

Compared with K7R, K7A is higher in abundance fitness: -0.174 ± 0.055 for the first, 0.027 ± 0.064 for the second.

Going from K7M to A18F, the abundance fitness falls from 0.144 ± 0.094 to -0.539 ± 0.18.

A18S and A18H are within error of each other in abundance fitness: -0.089 ± 0.073 for the first, 0.074 ± 0.14 for the second.

A18R and A18K are within error of each other in abundance fitness: -0.035 ± 0.058 for the first, -0.043 ± 0.086 for the second.

First: L13N
Second: L13I
The abundance fitness of the first is higher: -0.482 ± 0.11 for the first, -1.12 ± 0.28 for the second.

Compared with N2T, N2C is lower in abundance fitness: 0.027 ± 0.11 for the first, -0.547 ± 0.15 for the second.

Going from N2I to N2Q, the abundance fitness rises from -0.46 ± 0.23 to 0.037 ± 0.095.

N2K and A6D are within error of each other in abundance fitness: -0.139 ± 0.11 for the first, -0.002 ± 0.09 for the second.

Going from A6Y to T34R, the abundance fitness rises from -0.56 ± 0.13 to -0.257 ± 0.06.

Compared with T34W, T34N is higher in abundance fitness: -0.544 ± 0.083 for the first, 0.232 ± 0.12 for the second.

First: T34P
Second: V19H
The abundance fitness of the first is higher: -0.554 ± 0.11 for the first, -0.938 ± 0.23 for the second.

First: V19S
Second: V19T
The abundance fitness of the first is lower: -0.533 ± 0.078 for the first, -0.231 ± 0.1 for the second.

First: K47D
Second: K47L
The abundance fitness of the first is higher: -0.41 ± 0.11 for the first, -0.605 ± 0.075 for the second.

K47T and L41R are within error of each other in abundance fitness: -0.447 ± 0.11 for the first, -0.552 ± 0.061 for the second.

L41I and L41A are within error of each other in abundance fitness: -0.268 ± 0.16 for the first, -0.451 ± 0.065 for the second.

First: V32A
Second: V32E
The abundance fitness of the first is lower: -0.489 ± 0.079 for the first, -0.166 ± 0.09 for the second.

V32R and V32W are within error of each other in abundance fitness: -0.599 ± 0.064 for the first, -0.732 ± 0.091 for the second.

V32D and A9G are within error of each other in abundance fitness: -0.347 ± 0.091 for the first, -0.292 ± 0.064 for the second.

Going from A9C to A9T, the abundance fitness rises from -0.094 ± 0.1 to 0.117 ± 0.11.

Compared with P36G, P36E is higher in abundance fitness: -0.391 ± 0.059 for the first, -0.103 ± 0.086 for the second.

Going from S45K to K55N, the abundance fitness falls from -0.117 ± 0.1 to -0.337 ± 0.12.

First: K55Y
Second: M31T
The abundance fitness of the first is lower: -0.644 ± 0.18 for the first, -0.336 ± 0.11 for the second.

N52W and K17V are within error of each other in abundance fitness: -0.431 ± 0.085 for the first, -0.525 ± 0.068 for the second.

Going from K17S to K17N, the abundance fitness rises from -0.365 ± 0.071 to -0.07 ± 0.15.

F51S and S24M are within error of each other in abundance fitness: -0.463 ± 0.41 for the first, -0.591 ± 0.093 for the second.

S24V and E12F are within error of each other in abundance fitness: -0.644 ± 0.067 for the first, -0.718 ± 0.18 for the second.

First: E12P
Second: E12H
The abundance fitness of the first is lower: -0.988 ± 0.14 for the first, -0.297 ± 0.17 for the second.

Going from E12L to W25D, the abundance fitness rises from -0.632 ± 0.091 to -0.114 ± 0.1.

W25P and W25L are within error of each other in abundance fitness: -0.237 ± 0.11 for the first, -0.242 ± 0.087 for the second.

Going from W25V to W25G, the abundance fitness rises from -0.291 ± 0.073 to -0.161 ± 0.055.

Compared with L44E, L44V is lower in abundance fitness: 0.137 ± 0.089 for the first, -0.107 ± 0.077 for the second.

L44P and Q49T are within error of each other in abundance fitness: -0.269 ± 0.084 for the first, -0.364 ± 0.15 for the second.

Compared with Q49W, Q49A is higher in abundance fitness: -0.643 ± 0.1 for the first, 0.112 ± 0.11 for the second.

Q49G and Q49V are within error of each other in abundance fitness: -0.343 ± 0.072 for the first, -0.205 ± 0.087 for the second.

Q27V and Q27A are within error of each other in abundance fitness: -0.297 ± 0.091 for the first, -0.143 ± 0.091 for the second.

Going from Q27M to D35K, the abundance fitness falls from -0.297 ± 0.14 to -1.11 ± 0.18.

D35F and D35L are within error of each other in abundance fitness: -0.951 ± 0.26 for the first, -0.853 ± 0.1 for the second.

Going from E46R to E46H, the abundance fitness rises from -1.04 ± 0.072 to -0.724 ± 0.18.

First: E46T
Second: A53L
The abundance fitness of the first is lower: -0.631 ± 0.11 for the first, -0.314 ± 0.074 for the second.

Going from A53R to M29D, the abundance fitness rises from -0.452 ± 0.065 to -0.097 ± 0.1.

In the case of M29E, the abundance fitness is reported as -0.102 ± 0.1.

Variants of: B2
Experiment: as above
Details: Homo sapiens

C9L and C9S are within error of each other in abundance fitness: -0.978 ± 0.19 for the first, -0.82 ± 0.11 for the second.

C9A and C9D are within error of each other in abundance fitness: -0.797 ± 0.13 for the first, -0.847 ± 0.23 for the second.

C9W and C9V are within error of each other in abundance fitness: -0.937 ± 0.28 for the first, -0.792 ± 0.15 for the second.

C9G and C9R are within error of each other in abundance fitness: -0.655 ± 0.15 for the first, -0.827 ± 0.16 for the second.

C9H and C9T are within error of each other in abundance fitness: -0.798 ± 0.28 for the first, -0.726 ± 0.15 for the second.

C9F and C9Y are within error of each other in abundance fitness: -0.659 ± 0.23 for the first, -0.955 ± 0.22 for the second.

C12I and C12G are within error of each other in abundance fitness: -1.14 ± 0.32 for the first, -0.756 ± 0.24 for the second.

First: C12E
Second: C12L
The abundance fitness of the first is lower: -0.797 ± 0.33 for the first, -0.344 ± 0.09 for the second.

C12P and C12K are within error of each other in abundance fitness: -0.52 ± 0.17 for the first, -0.435 ± 0.18 for the second.

C12H and C12R are within error of each other in abundance fitness: -0.825 ± 0.26 for the first, -0.586 ± 0.15 for the second.

C12S and C12N are within error of each other in abundance fitness: -0.855 ± 0.13 for the first, -0.713 ± 0.37 for the second.
